# Fewer inactive variants are shown than the library holds.
# B1: TPR 5TU (parent)
# chain: GGAUCUUCUCGAUCUAACAAAAAAGACAAAUCUGCCACAAAGCUUGAGAGCAUCUUCGGAUGCAGAGGCGGCAGCCUUCGGUGGCGCGAUAGCGCCAACGUUCUCAACUAUGACACGCAAAACGCGUGCUCCGUUGAAUGGAGUUUAUCAUG
# Variants of: B1
# Experiment: polymerase ribozyme fitness, log enrichment relative to wild type (log ratio); higher = more active; in vitro selection for triplet polymerase activity
# Summary of the method: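 Fitness compares each genotype's enrichment to that of the wild type on a logarithmic scale, averaging replicates with inverse-variance weights. The logarithm is base 2. Enrichment came from Illumina sequencing of input and output libraries after one triplicate round of in vitro selection, which included frozen incubation at −7 °C, of PCR-built, transcribed mutant libraries of each subunit of a heterodimeric triplet polymerase ribozyme. Only genotypes with ≥10 input reads and ≥1 read per output were kept.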
row,Variant,polymerase ribozyme fitness (log ratio)
1,G46C C57A A66U A113C,≤ -4.2
2,G48A C54A U55G G58U A97G,-3.22
3,G46A U55A G58C G84C,-2.84
4,A47C G48C G74C U78G G143U,≤ -4.2
5,G46C C76U,≤ -4.2
6,A47G G58C G112C,-3.97
7,A47C G86A C149U,-1.64
8,A47C G141A,-1.5
9,A47U C76U,-0.942
10,A47U G68U,≤ -4.2
11,A47G U56A U90C G92U U139C,≤ -4.2
12,A47C C85A C118U,-0.946
13,G46A G68C A89C G124A,≤ -4.2
14,A47U G48C G71C G94A C108G G124C G141A,≤ -4.2
15,A47U A73U A147C,-2.13
16,A47U A89G C116U G133U A138C,-4.12
17,A47C G126A,0.0505
18,A47C A60G C85A,-2.83
19,A47U G141A,-1.46
20,A47G C123U C129G,-3.23
21,A47U U77C C85A C93G A107U,≤ -4.2
22,U45G U55G A91C U101A A107G,≤ -4.2
23,A47C A73G,-0.266
24,A47G A115C,-0.724

row,Variant,polymerase ribozyme fitness (log ratio)
1,U45G G59A,-0.523
2,G48A C57G A60G C63A C99G,≤ -4.2
3,G46A C85A A150C,≤ -4.2
4,A47C C63U C79A G80A G86C U102C,≤ -4.2
5,A47C U55A A60G,-0.228
6,A47G A49U C103G,≤ -4.2
7,A47C U134G G136A,-0.632
8,G46U G59C C96G,-3.41
9,A47U U53A,-1.33
10,A47G U56A U134G,-2.17
11,A47G A91G A97G A98C U134G U139A,≤ -4.2
12,A47C A52G G68C A91C,≤ -4.2
13,A47C A60G C93A C95A C96U U139G,≤ -4.2
14,G48A A49G C54U U90G G92U C99U A121C U151A,≤ -4.2
15,G46A C99A C114A C129A G141A,≤ -4.2
16,A47U A49G G141A U145A,≤ -4.2
17,A47C U53A G81A U104G,-1.12
18,A47G A52G U56A C87G,≤ -4.2
19,A47U G50C C93A C96G,≤ -4.2
20,G46A U53G,-3.49
21,A47C C54U G83U A142G,-2.18
22,G46C U61G G81C C114U C116G A147G,≤ -4.2
23,A47U A52U C93A C125G U135C,≤ -4.2
24,A47C G59A,0.309

row,Variant,polymerase ribozyme fitness (log ratio)
1,A47C G48U C76G C96U A113C,≤ -4.2
2,A47C C69U G80C,≤ -4.2
3,A47G A91G A97G G112C,≤ -4.2
4,A47C C96U A107U,-3.57
5,G46A U135G,-3.27
6,G46C C54U G94A C99A A142U U151C,≤ -4.2
7,G46A C51G U56A G88U G141A,≤ -4.2
8,A47G A52G C87U A98G,-1.52
9,G46A C129U,-3.61
10,A47C G50A U102C U146A,-2.55
11,A47U G48C,-1.39
12,G46C G86A,-1.59
13,A47C G65C G88A C103A,≤ -4.2
14,G48A A113G A147G G152C,≤ -4.2
15,A47C A66C G83C U104C G126C U130C C132G A138C,≤ -4.2
16,A47C G84A,-0.485
17,A47C C93A A107G G140U,≤ -4.2
18,A47U G48A U146G,-2.73
19,U45G G92U C103A U104A,≤ -4.2
20,G46C C96A C123G,-1.48
21,G46U A52G C93G,-4.03
22,G48A C57A U144G,0.472
23,G46A C93U,-1.21
24,G48A A49C U53A G100A,≤ -4.2

row,Variant,polymerase ribozyme fitness (log ratio)
1,A47U U56A G94A C118U A121U,-0.95
2,A47U C85A U139G,-1.24
3,G46A U56G A91G U148A,≤ -4.2
4,A47C G59A C72U G81C A89G G128C U134C,≤ -4.2
5,G46U C99A,-3.99
6,A47C C87U,-0.109
7,G48A C54U G94C,-1.21
8,G46A G84A,-2.74
9,A47U C54A,-1.93
10,A47U A60C C103G A107G,≤ -4.2
11,G46A A49C U101G,≤ -4.2
12,G46A C63G G67C C85U,≤ -4.2
13,A47G U61A,-1.41
14,A47C A49G G83A G140A,≤ -4.2
15,A47G C63G G92U C93U,-1.34
16,U45G G83A,-0.848
17,A47G G84U A106G,-2.24
18,G46A C85A G136U G140U A142G,≤ -4.2
19,G48A C57A C125U,-1.74
20,G46U G68C G94C,≤ -4.2
21,G46U G59A A60C,-2.54
22,A47U C54U C114U,-2.94
23,A47U U55A,-0.542
24,A47U U55G,-1.03

row,Variant,polymerase ribozyme fitness (log ratio)
1,G46A C85A,-2.16
2,A47U U61A C75A C76U G88U,≤ -4.2
3,G48A A52U U56A U78A A98U U139C,≤ -4.2
4,U45G G86U C87A,≤ -4.2
5,G46A C85G A106C C125A,≤ -4.2
6,G48A A52G G83U U101A C131A U148A,≤ -4.2
7,A47C U56A C87A C93G A121U C132G G143A U144C,≤ -4.2
8,A47G C96U G124C,-1.06
9,G46A U61G C103A C118G,≤ -4.2
10,A47C A49G,-0.809
11,A47G A49C A52G G81U G83C U134A,≤ -4.2
12,U45G G152A,-1.18
13,G46A C69A,-3.61
14,A47G C87U,0.257
15,A47C U61A G140U U145G,≤ -4.2
16,A47U G50C,-3.22
17,A47C A49C G65A G84A A113G G141A,≤ -4.2
18,G46C C72U G94A U102C A110G C125G A147C,≤ -4.2
19,A47C C95U,0.141
20,A47C A66U C103G,≤ -4.2
21,A47U A97G A98G C116U A150U,0.886
22,G46U A52C A89U G94A G133C,≤ -4.2
23,G46U G71C C95U A97U A115C G136U,≤ -4.2
24,G46A C76A G86U A121U U144G,≤ -4.2

row,Variant,polymerase ribozyme fitness (log ratio)
1,A47C G59C G86A,≤ -4.2
2,A47U G126C,-0.0812
3,A47C G92U C105U C131G,≤ -4.2
4,G46A G84A A119C G136A A150G,-3.68
5,U45G G128U,-3.86
6,A47G G50C U82G,≤ -4.2
7,U45G U53A C75A C93A A113G,≤ -4.2
8,U45G G84U,-1.97
9,A47C G62A G70A U82A C85U G86A G152C,≤ -4.2
10,A47U G48U G80C C93U,≤ -4.2
11,A47C C54U G84A U109G,-1.84
12,A47G U55A C63G G84C,≤ -4.2
13,A47U C96G C116U,-0.28
14,G46U G83U,-2.29
15,A47C C57A C93U,-1.3
16,A47C C57A G84C G86U U146C C149U,≤ -4.2
17,A47C G58C A64U U104C A107G,≤ -4.2
18,A47G C87U C99U,-1.24
19,A47C G94A,-2.54
20,A47U U56A C99G A121C,-2.02
21,G46A U55G C79A C85G A97U,≤ -4.2
22,A47G U78A G81U G86C U127G A138C,≤ -4.2
23,A47U G94A U134G,-1.69
24,A47G G84U C149U,-3.35

row,Variant,polymerase ribozyme fitness (log ratio)
1,G46C C99G U101G C105G G124A,-2.54
2,G46C G59A U82A C85G A110C A113U G126U G128A,≤ -4.2
3,G46C G70A C75G A119C,≤ -4.2
4,A47G U90A C95A A98G A138U A147C,≤ -4.2
5,G46C C114U,-3.67
6,G48A,-0.217
7,A47G U55A A91G,-2.78
8,G46U C54U A73U,-3.31
9,A47G U53A,-0.375
10,G46C G68A U101G G117U,≤ -4.2
11,A47U A64G G67A,≤ -4.2
12,G46A G67A G84U A97G C99U C116U,≤ -4.2
13,G46A G58A G83C,-1.17
14,U45G G80C A106G A119U A121U G124C G133U,≤ -4.2
15,A47C G50C,-4.1
16,A47C C85G U134G,-4.19
17,G46C A49U C72U C116U,≤ -4.2
18,A47U C51A G58A G80A G83A C103U,≤ -4.2
19,A47C C93U,-1.69
20,G46U G59C C85A A115U,-4.01
21,G46C G136A,-0.148
22,G46C C54U A66G G94A C95A G143A,≤ -4.2
23,A47C A60U G80U C93U,≤ -4.2
